Measurements from US20180079808A1 (AbbVie / Abbott, published 2018).

T1: rat rIL-13 (rat, UniProt P42203 19-131, limits assumed)
T1 sequence (looked up): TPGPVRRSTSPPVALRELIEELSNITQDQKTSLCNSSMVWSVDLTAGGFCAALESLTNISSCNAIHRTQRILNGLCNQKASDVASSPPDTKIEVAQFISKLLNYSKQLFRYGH

B1: 13C5.5, humanized recombinant immunoglobulin IgG1 (IgG1, κ) monoclonal antibody (antibody, V domains shown)
VH: EVTLRESGPGLVKPTQTLTLTCTLYGFSLSTSDMGVDWIRQPPGKGLEWLAHIWWDDVKRYNPALKSRLTISKDTSKNQVVLKLTSVDPVDTATYYCARTVSSGYIYYAMDYWGQGTLVTVSS
VL: DIQMTQSPSSLSASVGDRVTISCRASQDIRNYLNWYQQKPGKAPKLLIFYTSKLHSGVPSRFSGSGSGTDYTLTISSLQPEDIATYYCQQGNTLPLTFGGGTKVEIK
B2: Fab portion of 13C5.5 antibody (Fab, V domains shown)
VH: B1 VH
VL: B1 VL
notes: Fab used for the crystal structure with human IL-13; also called 13C5.5 Fab
B3: 5G1 (antibody, V domains shown)
VH: QVQLQQSGAELARPGTSVKLSCKASGYTFTTYGVSWVKQRTGQGLEWIGEIYPGNYNTYYNEKFRGKATLTADKSSSTAYMQLSSLTSEDSAVYFCSRWRTSYFSDYGYFDYWGQGTTLTVSS
VL: DVVMTQTPLSLPVSLGDQASISCRSSQSLVHSHGNTYLHWYLQKPGQSPKLLIYTVSNRFSGVPDRFSGSGSGTDFTLKISRVEAEDLGVYFCSQSTHVPYTFGGGTKLEIKR
B4: 9C11 (antibody, V domains shown)
VH: QVRLQQPGAELVRPGASVKLSCKASGYTFTSSWIHWVNQRPGQGLEWIGMIHPSDSETRLNQKFKDKATLTVDKSSSTAYMQLSSPTSEDSAVYYCASTATDFDYWGQGTTLTVSS
VL: DVVLTQTPLSLPVNIGDQASISCRSTQTLLNSDGFTYLDWYLQKPGQSPQLLIYLVSNRFSGVPDRFSGSGSGTDFTLKISRVEAEDLGVYYCFQNNYLPLTFGAGTKLELKR

What was measured:
cynomolgus monkey rIL-13 [1] = target: T2, cynomolgus monkey rIL-13 (cynomolgus monkey, UniProt Q0PW92 21-132); experiment: cell-based or functional assay
rat rIL-13 = target: T1, rat rIL-13; experiment: cell-based or functional assay
human IL-13 wild type [2] = target: T3, human IL-13 wild type (human, UniProt P35225 35-146, limits assumed); experiment: crystal structure of the complex
T3 construct: also called IL-13 wt; rh IL-13

[3] = target: T4, human IL-13 variant (R130Q) (human, UniProt P35225 35-146, limits assumed); experiment: column 'Affinity, KD (nM)', hIL-13v; method not given
T4 construct: also called variant IL-13

cynomolgus monkey rIL-13 [4] = target: T2, cynomolgus monkey rIL-13; experiment: cell-based or functional assay; remark: listed apart in the source
[5] = target: T4, human IL-13 variant (R130Q); experiment: cell-based or functional assay
human IL-13 wild type [6] = target: T3, human IL-13 wild type; experiment: cell-based or functional assay
human IL-13 wild type [7] = target: T3, human IL-13 wild type; experiment: column 'Affinity, KD (nM)', hIL-13wt; method not given

T4 sequence (P35225 35-146 limits assumed, stated change not applied): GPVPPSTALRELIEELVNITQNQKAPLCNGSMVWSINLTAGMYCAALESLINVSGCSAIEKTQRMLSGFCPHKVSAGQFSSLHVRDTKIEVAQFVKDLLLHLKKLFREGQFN
T3 sequence (P35225 other isoform, or with tags, fused parts or gaps limits assumed): as the sequence (P35225 35-146 limits assumed, stated change not applied) above, with Q110R counted along it
T2 sequence (Q0PW92 entry or part of it): as the sequence (P35225 35-146 limits assumed, stated change not applied) above, with G1S, R10K, M42V, S67N, H83R, L100V counted along it

Binder | fold lower in vitro potency compared to human rIL-13 (cynomolgus monkey rIL-13 [1]) [fold] | half maximal inhibitory concentration (IC50), in vitro neutralization (cynomolgus monkey rIL-13 [1]) [nM] | IC50, in vitro neutralization (rat rIL-13) [nM] | fold lower in vitro potency compared to human rIL-13 (rat rIL-13) [fold] | binding result (human IL-13 wild type [2]) | Kd [3] [nM] | Potency, IC50 (neutralisation of Cyno IL-13; assay not given) (cynomolgus monkey rIL-13 [4]) [nM] | Potency, IC50 (neutralisation of hIL-13v; assay not given) [5] [nM] | Potency, IC50 (neutralisation of hIL-13wt; assay not given) (human IL-13 wild type [6]) [nM] | Kd (human IL-13 wild type [7]) [nM]
B1 | 51 | 4.1 | 12.4 | 155 | – | – | – | – | – | –
B2 | – | – | – | – | binds | – | – | – | – | –
B3 | – | – | – | – | – | 0.13 | 0.612 | 0.048 | 0.076 | 0.008
B4 | – | – | – | – | – | 0.092 | 0.64 | 0.17 | 0.184 | 0.112
